Experimental data published in patent US20110059079A1 (XOMA TECHNOLOGY, published 2011).

Key:
Assay in all cases: ELISA on plate-coated toxin domain
[1] = biological target: BoNT/A light-chain heavy-chain N-terminus (LCHN) domain (UniProt P0DPI0 1-870)
[2] = biological target: BoNT/A heavy-chain C-terminus (HCC) domain (UniProt P0DPI0 1093-1296)
[3] = biological target: BoNT/A heavy-chain N-terminus (HCN) domain (UniProt P0DPI0 871-1092)
Sequence of BoNT/A heavy-chain N-terminus (HCN) domain (P0DPI0 871-1092 limits assumed): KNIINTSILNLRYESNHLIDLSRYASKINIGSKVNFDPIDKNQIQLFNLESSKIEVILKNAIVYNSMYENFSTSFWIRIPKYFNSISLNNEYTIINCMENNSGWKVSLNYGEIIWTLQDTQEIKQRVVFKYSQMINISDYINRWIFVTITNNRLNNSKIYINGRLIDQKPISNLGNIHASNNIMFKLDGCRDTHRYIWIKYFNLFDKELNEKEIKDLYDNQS

Sequence of BoNT/A light-chain heavy-chain N-terminus (LCHN) domain (P0DPI0 1-870 limits assumed): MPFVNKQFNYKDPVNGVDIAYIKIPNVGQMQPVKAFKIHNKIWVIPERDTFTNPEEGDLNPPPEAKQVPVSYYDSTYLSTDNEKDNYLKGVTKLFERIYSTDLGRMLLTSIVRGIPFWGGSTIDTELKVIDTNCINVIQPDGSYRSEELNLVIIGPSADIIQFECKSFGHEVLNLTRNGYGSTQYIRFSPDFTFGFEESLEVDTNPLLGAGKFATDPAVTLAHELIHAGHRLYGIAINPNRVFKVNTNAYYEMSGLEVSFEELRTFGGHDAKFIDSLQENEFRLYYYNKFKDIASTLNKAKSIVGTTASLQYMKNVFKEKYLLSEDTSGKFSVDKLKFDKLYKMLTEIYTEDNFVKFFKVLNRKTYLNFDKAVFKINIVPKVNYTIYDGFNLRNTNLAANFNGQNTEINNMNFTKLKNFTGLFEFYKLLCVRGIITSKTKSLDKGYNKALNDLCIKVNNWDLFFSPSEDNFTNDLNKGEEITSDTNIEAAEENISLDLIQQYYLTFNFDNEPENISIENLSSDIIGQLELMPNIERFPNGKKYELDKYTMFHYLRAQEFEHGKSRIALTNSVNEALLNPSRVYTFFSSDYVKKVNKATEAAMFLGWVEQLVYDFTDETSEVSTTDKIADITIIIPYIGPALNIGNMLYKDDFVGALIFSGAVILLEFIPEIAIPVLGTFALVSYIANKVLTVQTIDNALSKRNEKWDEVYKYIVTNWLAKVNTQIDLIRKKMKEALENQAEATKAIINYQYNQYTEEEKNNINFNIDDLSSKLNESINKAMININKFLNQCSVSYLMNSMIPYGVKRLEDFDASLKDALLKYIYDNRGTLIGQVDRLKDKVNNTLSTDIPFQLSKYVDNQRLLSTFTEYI
Sequence of BoNT/A heavy-chain C-terminus (HCC) domain (P0DPI0 1093-1296 limits assumed): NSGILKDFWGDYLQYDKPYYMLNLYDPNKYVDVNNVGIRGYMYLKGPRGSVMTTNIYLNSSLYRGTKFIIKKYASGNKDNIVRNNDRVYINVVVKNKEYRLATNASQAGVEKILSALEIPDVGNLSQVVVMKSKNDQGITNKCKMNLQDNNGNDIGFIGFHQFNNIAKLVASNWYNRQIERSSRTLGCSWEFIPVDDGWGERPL

Binder	binding result [1]	binding result [2]	binding result [3]
ABT01 (antibody, V domains shown) VH: QVQLQQSGGGLVQPGGSLRLSCAASGFTFKYDYMYWIRQAPGKGLEWVATISDGGSYTYYSDSVEGRFTTSRDNSKNTLYLQMNSLRAEDTAIYYCSRYRYDDAMDYWGQGTLVTVSS VL: EIVLTQSPATLSLSPGERATISCRASESVDSYGHSFMQWYQQKPGQAPRLLIYRASNLEPGIPARFSGSGSGTDFTLTISSLEPEDFAVYYCQQGNEVPFTFGQGTKVEIK	no binding	no binding	–
ABT02 (antibody, V domains shown) VH: QVQLVQSGGGVVHPGRSLKLSCAGSGFTFSDYDMHWVRQAPGKGLEWVAVMWFDGTEKYSAESVKGRFTISRDNSKNTLFLQMNSLRADDTAVYYCAREPDWLLWGDRGALDVWGQGTTVTVSS VL: DIVMTQSPSTLSASVGDRVTITCWASQSISSRLAWYQQKPGKAPKLLMYEATSLGSGVPSRFSGSGSGTEFTLTISSLQPDDFAAYYCQHYDTYPYTFGQGTKLEIK	no binding	–	no binding
ABT03 (antibody, V domains shown) VH: QVQLQQSGGGLVQPGGSLRLSCAASGFTFSNYAMTWVRQAPGKGLEWVSSISVGGSDTYYADSVKGRFTVSRDNSKNTLLLQMNSLRAEDTAVYYCAKVRTKYCSSLSCFAGFDSWGQGTRVTVSS VL: DVVMTQSPSSLSASVGDRVTITCRASQSISSYLHWYQQKPGKAPTLLISDASSSQSGVPSRFSGSRFGTDFTLTISSLQPEDFATYYCQQSYSTRALTFGGGTKVEIK	–	no binding	no binding
